In patent publication US20220056125A1 (CEPHALON, published 2022):
Numbering of substitutions follows the chain as printed.

T1: human PAR-1 (human, UniProt P25116 22-425)
T1 construct: also called huPAR-1
T1 sequence: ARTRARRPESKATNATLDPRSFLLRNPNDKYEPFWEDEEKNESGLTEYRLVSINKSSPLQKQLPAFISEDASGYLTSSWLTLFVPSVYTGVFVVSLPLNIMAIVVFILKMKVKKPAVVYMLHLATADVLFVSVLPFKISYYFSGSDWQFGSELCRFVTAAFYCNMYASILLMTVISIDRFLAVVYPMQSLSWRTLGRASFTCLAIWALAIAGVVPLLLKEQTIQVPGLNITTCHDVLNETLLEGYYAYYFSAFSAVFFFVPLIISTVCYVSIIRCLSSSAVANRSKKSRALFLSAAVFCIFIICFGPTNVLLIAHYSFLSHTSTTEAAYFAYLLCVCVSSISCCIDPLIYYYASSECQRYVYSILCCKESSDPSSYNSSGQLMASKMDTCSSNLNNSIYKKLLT

T2: human PAR-2 (human, UniProt P55085 26-397)
T2 sequence: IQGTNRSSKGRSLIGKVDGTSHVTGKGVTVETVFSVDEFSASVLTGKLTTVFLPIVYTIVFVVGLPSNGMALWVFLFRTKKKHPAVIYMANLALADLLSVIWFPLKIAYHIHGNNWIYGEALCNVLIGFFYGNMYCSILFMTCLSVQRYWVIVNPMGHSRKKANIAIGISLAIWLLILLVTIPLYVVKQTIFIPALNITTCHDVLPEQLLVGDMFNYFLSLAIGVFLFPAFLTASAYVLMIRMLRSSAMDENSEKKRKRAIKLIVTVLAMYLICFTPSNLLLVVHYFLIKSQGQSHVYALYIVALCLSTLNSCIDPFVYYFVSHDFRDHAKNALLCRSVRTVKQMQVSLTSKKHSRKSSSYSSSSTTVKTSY

B1: Ab5 (antibody, human IgG4, V domains shown)
VH: QVQLQQPGSELVKPGASVKLSCKASGYTFTNYWMHWVKQRPGQGLEWIGMIHPNSDFSNYNEKFKKKATLTVDKSSSTAYMQLSSLTSEDSAVYFCAKGPNYYGSRYWYFDVWGTGTTVTVSS
VL: DIVLTQSPTSLAVSLGQRATISCRASESVDSYGNSFLHWYQQKAGQPPKLLIYRTSNLESGIPARFSGSGSRTDFTLTINPVEADDVATYFCQQSNEDPYTFGGGTKLELK
notes: also called Anti-PAR-2 antibody # 5
B2: Ab303 (antibody, human IgG4, V domains shown)
VH: QVTLKESGPGILQPSHTLSLTCSFSGFSLSTYGMGVSWIRQPSGKGLEWLASIWWNGNTYNNPSLKSRLTVSKDTSNNQAFLKVTSVDTADTATYYCAHTPNLGNWFAYWGQGTLVTVSS
VL: DIQMTQSPSFLSASVGERVTLSCKTSQKINRYLDWYQQKLGEAPKLLIYNTNNLHTGIPSRFSGSGSGTDYTLTISSLQPEDVATYFCLQHSSWPTFGAGTKLELK
notes: also called Anti-PAR-2 antibody # 303
B3: Ab86 (antibody, human IgG4, V domains shown)
VH: EVQLVESGGGLVQPKGSLKLSCAASGFTFNTYAMHWVRQAPGKGLEWVARIRSKNVHYATYYADSVKDRFTISRDDSQNMLYLQMNNLKTEDTAMYYCVREDYYGSSYDYWGQGTTLTVSS
VL: DIVMTQSHKFMSTSLGDRVSITCKASQDVGSAVAWHQQKPGQSPKVLIYWASNRHTGVPDRFTGSGSGTDFTLTISNVQSEDLADYFCQQYSSYPFTFGSGTKLEIK
notes: also called Anti-PAR-2 antibody # 86
B4: Ab84 (antibody, human IgG4, V domains shown)
VH: B3 VH with V5I, T31S, N79S, Y97F
VL: B3 VL with L15V, V46L, A51T, S65R, G66R, S93T
notes: also called Anti-PAR-2 antibody # 84
B5: Ab87 (antibody, human IgG4, V domains shown)
VH: B3 VH with N30Y, T31S, K43R
VL: B3 VL with L15V, G30R, V46L
notes: also called Anti-PAR-2 antibody # 87
B6: Ab245 (antibody, human IgG4, V domains shown)
VH: QVQLKESGPGLVQPSQTLFLTCTVSGFSLTSYHVSWVRQPPGKGLEWMGIIWTGGSTAYNSLLKPRLTISRDTSKSQVFLKMNSLRTEDTATYYCARRGLYPFYFDYWGQGVMVTVSS
VL: EVVLTQSPTTMAASPGEKVTITCRATSSVSHMYWYQQKSGASPKPWIYETSKLASGVPDRFRGSGSGTSYSFTISSMETEDVATYYCHQWSSFPYTFGPGTKLELK
notes: also called Anti-PAR-2 antibody # 245
B7: Ab248 (antibody, human IgG4, V domains shown)
VH: B6 VH with F19S, S31N, P65S, T68S, R86Q, F103Y
VL: EIVLTQSPTTLAASPGEKVTITCRASSRVSNMYWYQQKSGASPKAWIYETSKLASGVPDRFSGSGSGTSYSFTISSMETEDAATYYCHQWTSTPYTFGAGTKLELK
notes: also called Anti-PAR-2 antibody # 248
B8: Ab360 (antibody, human IgG4, V domains shown)
VH: EVQLVESGGGLVQPGRSLKLSCVASGFTFNNYWMTWIRQAPGKGLEWVASITNTGGSTYYPDSVKGRFTISRDNAKSTLYLQMNSLRSEDTATYYCTREGIRGTGWFAYWGQGTLVTVSS
VL: DTVLTQSPALAVSPGERVTISCRASESVRTRMHWYQQRPGQQPKLLIYGASNPESGVPARFSGSGSGTDFTLTIDPVEADDSATYFCHQSWNEYTFGAGTKLELK
notes: also called Anti-PAR-2 antibody # 360
B9: Ab335 (antibody, human IgG4, V domains shown)
VH: QVQLKESGPGLVQPSQTLSLSCTVSGFSLSTYGVIWVRQPPGKGLEWMGVIWGNGNTNYNSALKSRLSISRDTSKSQVFLKMNNLQSEDTAMYFCGRWRGYKDYPFDYWGQGVKVTVSS
VL: DIQMTQSPSFLSASVGDRVTINCKASRNIYKYLDWYQQKLGEAPKLLIYNTNNLHTGIPSRFSGSGSGTDFTLTISSLQPEDVATYFCLQHNSGWTFGGGTKLELK
notes: also called Anti-PAR-2 antibody # 335
B10: Ab348 (antibody, human IgG4, V domains shown)
VH: QVQLKESGPGLVQPSQTLSLTCSVSGFSLSSYGVIWVRQPPGKGLEWMGVVWGNGNTAYNFTLKSRLTISRDTSKSQVFLKMNNLQTEDTAMYFCGRWRGFKDYPFDYWGQGVMVTVSS
VL: B9 VL with R27Q, N53S
notes: also called Anti-PAR-2 antibody # 348
B11: Ab342 (antibody, human IgG4, V domains shown)
VH: B9 VH with S30N, E46D, N58Y, N60D, V78I, Y101F
VL: B9 VL with S7T, K24R, R27Q, Q38L, N53T, T96A
notes: also called Anti-PAR-2 antibody # 342
B12: Ab311 (antibody, human IgG4, V domains shown)
VH: B9 VH with S30T, E46M, N58Y, A62P
VL: B9 VL with R27Q, T51S, N53I, I58V, T74S, T101S, K106R
notes: also called Anti-PAR-2 antibody # 311
B13: Ab323 (antibody, human IgG4, V domains shown)
VH: B9 VH with S21T, T23S, V34I, N58H, S70T, S87T, K114M
VL: B9 VL with R27Q, I48M, N53T
notes: also called Anti-PAR-2 antibody # 323
B14: Ab313 (antibody, human IgG4, V domains shown)
VH: EVQLKESGPGLVQPSQTLSLTCTVSGFSLTDYSVHWVRQPPGKGLEWMGVMWSGGSTSYNSPLKSRLSISRDTSKSQVFLKTNSLQTEDTAIYYCTRARPTVATLDYWGQGVMVTVSS
VL: DIQMTQSPSVLSASVGDRVILNCKASQKINKYLNWYQQKLGEAPKLLIYTTNNLQTGIPSRFSGSGSGTDFTLTISSLQPEDFATYFCFQHSSWPTFGAGTKLELK
notes: also called Anti-PAR-2 antibody # 313
B15: Ab114 (antibody, human IgG4, V domains shown)
VH: QVQLQQSGPELVKPGASVKISCKTSGFTFTSYYIHWVKQRPGQGLEWIGWIYPGSGNTYYNERFKGKATLTADTSSSTASMQLSSLTSEDSAVYYCANGPLFYGSSYWYFDVWGTGTTVTVSS
VL: DVQITQSPSYLAASPGETITINCRASKSISRYLAWYQEKPGKTNKLLIYSGSTLQSGVPSRFSGSGFGTDFTLTISSLEPEDFAMYYCQQHNKYPLTFGAGTKLELK
notes: also called Anti-PAR-2 antibody # 114
B16: Ab343 (antibody, human IgG4, V domains shown)
VH: EVQLVESGGGLVQPGRSLKLSCVASGFTFNNYWMSWIRQAPGKGLEWVASITNTGGRIFYPDSVKGRFTISRDNAQNTLYLQMNSLRSEDAATYYCTRDRLYYGSNWFTYWGQGTLVTVSS
VL: DIQMTQSPHSLSASLGETVSIECLASEAISNYLAWYQQKPGKSPQLLIYYASSLKDGVPSRISGSGSGTQYSLKISNMQPEDEGVYYCQQGYKYPRTFGGGTKLELK
notes: also called Anti-PAR-2 antibody # 343
B17: Ab392 (antibody, human IgG4, V domains shown)
VH: EVQLVESGGGLVQPGRSLKLSCVASGFTFNNKWMTWIRQAPGKGLEWIASITNTGGRTFYPDSVKGRFTISRDDAKSTLYLQMNSLRSEDTATYYCTRATIRRGASYFDYWGQGVMVTVSS
VL: B16 VL with T18G, A28G, Y36F, K55Q, I62F, R96W
notes: also called Anti-PAR-2 antibody # 392

target: T1, human PAR-1; test: flow cytometry, transfected Expi293F cells
Experimental: Paired heavy and light chains encoded by these sequence pairs were expressed as a full length human IgG4 isotype antibodies and assessed for PAR-2 binding and selectivity by flow cytometry. […] Cells were used for flow cytometric analysis 36-48 hours post-transfection. Use of Nt-PAR-2 as a target allowed antibodies which bound the N-terminal residues of PAR-2 (which comprise the protease-cleavage sites on PAR-2) to be distinguished from antibodies which bound other extracellular sites on PAR-2, such as the PAR-2-activating ligand-binding site(s). Expi293F cells, transiently expressing one of each of the different target proteins were labelled with different intensities of a single fluorphor Encoder dye (Intellicyt) for 10 mins at either 1 in 250 dilution for high intensity and/or 1 in 1500 dilution for moderate intensity, enabling simultaneous analysis of multiple cell populations. After washing the cells were then mixed in an equal ratio with the unlabeled cell type and analyzed for antibody binding.
The cells were plated in 96 well plates at 2×10⁵ cells/well. Following a wash step using Phosphate buffered saline (PBS), the primary antibody (anti-PAR-2 antibody) was added at a concentration of 10 μg/mL in 50 μL of FACS buffer (0.5% w/v BSA in PBS) to each well and incubated for 10-15 mins. Following a wash step, secondary antibody (anti-human Fc-FITC) was added to the wells at 1:200 dilution in 50 μL for 10-15 mins. Following a washing step, the cells were re-suspended in fluorescence-activated cell sorting (FACS) buffer. The flow cytometry analysis was performed on an Intellicyt iQue screener. Gates were drawn around the different intensities of encoder dye-positive cells and these populations were analyzed separately from each other and the unlabeled cells for binding by the primary antibody.

| binding result | Binder |
| --- | --- |
| no binding (tested: 10 µg/mL) | B1 |
| no binding (tested: 10 µg/mL) | B2 |
| no binding (tested: 10 µg/mL) | B3 |
| no binding (tested: 10 µg/mL) | B4 |
| no binding (tested: 10 µg/mL) | B5 |
| no binding (tested: 10 µg/mL) | B6 |
| no binding (tested: 10 µg/mL) | B7 |
| no binding (tested: 10 µg/mL) | B8 |
| no binding (tested: 10 µg/mL) | B9 |
| no binding (tested: 10 µg/mL) | B10 |
| no binding (tested: 10 µg/mL) | B11 |
| no binding (tested: 10 µg/mL) | B12 |
| no binding (tested: 10 µg/mL) | B13 |
| no binding (tested: 10 µg/mL) | B14 |
| no binding (tested: 10 µg/mL) | B15 |
| no binding (tested: 10 µg/mL) | B16 |
| no binding (tested: 10 µg/mL) | B17 |

target: T2, human PAR-2; test: cell-based or functional assay

| IC50, PAR-2 β-arrestin cell assay [nM] | Binder |
| --- | --- |
| 23.1 | B1 |
| 9 | B2 |
| 9.9 | B3 |
| 6 | B4 |
| 5.6 | B5 |
| 3.8 | B6 |
| 4.6 | B7 |
| 16 | B8 |
| 2.5 | B9 |
| 2.7 | B10 |
| 1.9 | B11 |
| 1.8 | B12 |
| 2.1 | B13 |
| 8.2 | B14 |
| 36.7 | B15 |
| 18.2 | B16 |
| 13.7 | B17 |
